{
  "source": "paper PMC3115443",
  "target": "326^βB (TP0326 β-barrel construct with a C-terminal His-tag) (Treponema pallidum subspecies pallidum (Nichols-Farmington strain))",
  "test": "native gel or EMSA",
  "data": [
    {"substance": "326^βB (TP0326 β-barrel construct with a C-terminal His-tag) (domain or fragment)", "values": [
      {"measurement": "stoichiometry N", "result": 3}
    ]}
  ]
}
